# Reference: article PMC6698862
# Columns and labels:
# [1] = molecular target: human P-cadherin, cell surface-expressed on NCI-H1650 adenocarcinoma cells (Homo sapiens (Human).) (UniProt P22223)
# [2] = molecular target: cynomolgus monkey P-cadherin extracellular domain (ECD) (Macaca fascicularis); assay: KinExA; recombinant cynomolgus monkey P-cadherin; PBS pH 7.4 with MgCl2, CaCl2 and 1 mg/mL BSA; PMMA beads; 4 °C for 2 h
# [3] = molecular target: human P-cadherin expressed on the surface of CHO cells (Homo sapiens) (UniProt P22223); assay: KinExA; human P-cadherin expressed on the surface of CHO cells; PBS pH 7.4 with MgCl2, CaCl2 and 1 mg/mL BSA; 4 °C for 2 h
# [4] = molecular target: human P-cadherin-Fc (recombinant human P-cadherin ECD protein) (Homo sapiens (Human).) (UniProt P22223); assay: ELISA; cadherin-Fc, P-cadherin His or CD3 epsilon-delta protein coated at 1 or 2 µg/mL; sample in 3% milk/PBS + Ca2+ and Mg2+, 1 h at room temperature
# [5] = molecular target: soluble human CD3 epsilon-delta heterodimer (Homo sapiens (Human).) (UniProt P07766); assay: as above
# [6] = molecular target: human P-cadherin, cell surface-expressed on NCI-H1650 adenocarcinoma cells (Homo sapiens (Human).) (UniProt P22223); assay: ELISA; cell binding ELISA on a confluent monolayer of NCI-H1650 cells; DART in 3% milk/PBS + Ca2+ and Mg2+, 1 h at room temperature; HRP-labelled secondary antibody
# [7] = molecular target: cynomolgus monkey P-cadherin extracellular domain (ECD) (Macaca fascicularis); assay: SPR; Biacore 3000 and T-200; P-cadherin or human CD3 protein immobilised on CM5 by amine coupling (~75–300 RU); DART injected in two-fold series 100 to 6.25 nM; TBS-P+ (10 mM Tris pH 7.4, 150 mM NaCl, 2 mM CaCl2, 0.1 mg/mL BSA, 0.05% P20); global 1:1 Langmuir fit
# [8] = molecular target: human P-cadherin-Fc (recombinant human P-cadherin ECD protein) (Homo sapiens (Human).) (UniProt P22223); assay: as above
# [9] = molecular target: soluble human CD3 epsilon-delta heterodimer (Homo sapiens (Human).) (UniProt P07766); assay: as above
# Sequence of UniProt P07766 (P07766 23-126, stated change not applied, chain 1 of 2): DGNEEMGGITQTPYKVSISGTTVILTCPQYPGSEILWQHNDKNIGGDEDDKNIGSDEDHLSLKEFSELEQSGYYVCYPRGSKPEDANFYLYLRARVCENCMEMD
# Sequence of UniProt P07766 (P04234 22-105, stated change not applied, chain 2 of 2, further chain): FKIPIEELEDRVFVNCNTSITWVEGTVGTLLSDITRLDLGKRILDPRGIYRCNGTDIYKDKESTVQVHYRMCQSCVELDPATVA
substance,measurement,setting,value
PF-06671008 (anti-P-cadherin LP-DART #153) (bispecific antibody),"redirected killing of DU145 cells by human PBMCs (LDH release, 24 h, E:T 30:1), EC50",[1],0.0031 nM
same,"redirected killing of HCT-116 cells by human PBMCs (LDH release, 24 h, E:T 30:1), EC50",[1],0.123 nM
same,Kd,[2],0.352 nM
same,Kd,[3],0.176 nM
same,EC50,[4],0.92 nM
same,EC50,[5],4.37 nM
same,EC50,[6],0.593 nM
same,Kd,[7],0.521 nM
same,koff,[7],0.000205 s⁻¹
same,kon,[7],437000 M⁻¹ s⁻¹
same,Kd,[8],> 1 nM
same,Kd,[9],11.5 nM
